The record followed here is publication PMC10698284.

The nature of data set [1]: Gal3-488 internalisation, 10 min 37 °C. Particulars: glycan lost; control: WTseq.
Data set [2] can be described thus: anti-SLC3A2 antibody uptake, 10 min 37 °C. Particulars: glycan lost; control: WTseq.
Data set [3] can be described thus: response of SLC3A2 endocytosis to 5 min inhibitor. As to conditions: glycan lost; control: WTseq (inhibitor reduced internalization by ∼50%).
Data set [4] can be described thus: dox-induced expression and FLAG pull-down efficiency. Particulars: control: WTseq.
A short description of data set [5]: surface anti-SLC3A2 antibody binding at 4 °C, imaging. As to conditions: glycan lost; control: WTseq.
Data set [6] in a line: endosomal distribution of internalised SLC3A2, confocal. As to conditions: glycan lost; control: WTseq (small peripheral endosomes).

B1: SLC3A2 (4F2hc, CD98): N381D (protein)
parent chain: MELQPPEASIAVVSIPRQLPGSHSEAGVQGLSAGDDSELGSHCVAQTGLELLASGDPLPSASQNAEMIETGSDCVTQAGLQLLASSDPPALASKNAEVTGTMSQDTEVDMKEVELNELEPEKQPMNAASGAAMSLAGAEKNGLVKIKVAEDEAEAAAAAKFTGLSKEELLKVAGSPGWVRTRWALLLLFWLGWLGMLAGAVVIIVRAPRCRELPAQKWWHTGALYRIGDLQAFQGHGAGNLAGLKGRLDYLSSLKVKGLVLGPIHKNQKDDVAQTDLLQIDPNFGSKEDFDSLLQSAKKKSIRVILDLTPNYRGENSWFSTQVDTVATKVKDALEFWLQAGVDGFQVRDIENLKDASSFLAEWQNITKGFSEDRLLIAGTNSSDLQQILSLLESNKDLLLTSSYLSDSGSTGEHTKSLVTQYLNATGNRWCSWSLSQARLLTSFLPAQLLRLYQLMLFTLPGTPVFSYGDEIGLDAAALPGQPMEAPVMLWDESSFPDIPGAVSANMTVKGQSEDPGSLLSLFRRLSDQRSKERSLLHGDFHAFSAGPGLFSYIRHWDQNERFLVVLNFGDVGLSAGLQASDLPASASLPAKADLLLSTQPGREEGSPLELERLKLEPHEGLLLRFPYAA
On to B1, for which the “other: Gal3 uptake by expressing cells” value in data set [1] is given as “decreases”. The localisation_or_trafficking entry in data set [2] is “increases”; in data set [3], “abolishes”; in data set [5] it was “no change”; in data set [6], “changes”. Further, the expression_or_secretion entry in data set [4] (glycan lost) is given as “no change”.

B2: SLC3A2 (4F2hc, CD98): A273N + D355N (protein)
parent chain: B1 parent chain
For the protein B2, the expression_or_secretion result in data set [4] (glycan gained) is “no change”.

B3: SLC3A2 (4F2hc, CD98): A273N (protein)
parent chain: B1 parent chain
For B3, in data set [4] (glycan gained), the expression_or_secretion entry was “no change”.

B4: SLC3A2 (4F2hc, CD98): D355N + D492N (protein)
parent chain: B1 parent chain
Consider B4, for which, in data set [4] (glycan gained), the expression_or_secretion entry is reported as “no change”.

B5: SLC3A2 (4F2hc, CD98): N365D (protein)
parent chain: B1 parent chain
Regarding B5, the “other: Gal3 uptake by expressing cells” value in data set [1] was “increases”. Further, the localisation_or_trafficking entry is given as “increases” in data set [2], “changes” in data set [3], “no change” in data set [5] and “changes” in data set [6]. Further, the expression_or_secretion result in data set [4] (glycan lost) is on record as “no change”.
